Test results taken from patent US6462189.
Where a chain is given by its changes, count along the chain named.

B1: ubiquitin-binding monobody 422 (phage clone) (designed binder, not shown: large carriers; small tags and cut ends)
chain: VSDVPRDLEVVAATPTSLLISWDAPARWTLYYRITYGETGGNSPVQEFTVPGSKSTATISGLKPGVDYTITVYAVTRRWWWSKPISINYRT
notes: Library 4 clone obtained by panning on ubiquitin; no test of it as a single clone is reported
B2: ubiquitin-binding monobody 424 (phage clone) (designed binder, not shown: large carriers; small tags and cut ends)
chain: B1 chain with A26G, R27Q, W28R, L30F, W81A
notes: as for B1

Molecular target: T1, Yeast ubiquitin (yeast, UniProt P0CG63 1-76)
T1 construct: mature; also called soluble ubiquitin; free ubiquitin
Assay: clone obtained by phage panning on immobilized ubiquitin
Experimental: Libraries 2 and 4, described in Example VI above, were used to select ubiquitin-binding monobodies. Ubiquitin (1 μg in 50 μl sodium bicarbonate buffer (100 mM, pH 8.5)) was immobilized in the wells of a microtiter plate, followed by blocking with BSA (3% in TBS). Panning was performed as described above. In the first two rounds, 1 μg of ubiquitin was immobilized per well, and bound phage were elute with an acidic solution. From the third to the sixth rounds, 0.1 μg of ubiquitin was immobilized per well and the phage were eluted either with an acidic solution or with TBS containing 10 μM ubiquitin.

T1 sequence (P0CG63 1-76 limits assumed): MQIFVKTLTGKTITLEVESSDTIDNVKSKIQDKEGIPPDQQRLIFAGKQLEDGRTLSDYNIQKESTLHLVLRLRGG

Binder	binding result
B1	binds
B2	binds
